This note sets out measurements from patent US20250340597A1.

This assay addresses CH848.d0949.10.17 DT (HIV-1). The experiment in a line: not stated (FIG. 4).

Broadly, the Kd is the concentration at which binding is half-saturated. Low readings indicate a tighter complex, high ones a looser complex.

DH270 UCA Fab registered a Kd of 60 nM.
